Data reported in the nanobody polyreactivity screen of Harvey et al. (2022).

Test: yeast display, Sf9 membrane polyspecificity reagent, FACS + sequencing; frameworks hold sequencing errors
Procedure, shortened: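 Sorting gates, low and high (top ~1%), were placed on anti-HA fluorescence to track expression and on streptavidin fluorescence to track reagent binding. A clone's polyreactivity label is taken from the gate it came out of. The reagent was 10% biotinylated, detergent-solubilized Sf9 membrane, applied for 1 hour at 4 °C to galactose-induced yeast display cells.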

Sequence | polyreactivity (PSR sort gate)
QVQLVESGGGLVQAGGSLRLSCAASGRNFRTNAMGWYRQAPGKERELVAAITWRGGNTYYADSVKGRFTISRDNAKNTVYLQMNSLKPEDTAVYYCATAYRYYPSPYDYWGQGTQVSVSS | high polyreactivity
QVQLVESGGGLVQAGGSLRLSCAASGRNFSANAMGWYRQAPGKEREMVATISSGGRTNYADSVKGRFTISRDNAKNTVYVQMNSLKPEDTAVYYCAKRGPYNRWYGRYDYWGQGTQVTVSS | low polyreactivity
QVQLVESGGGLVQAGGSLRLSCAASGRNFSHNAMGWYRQAPGKERELVAAISSRAGRTYADSVKGRFTISRDNAKYTVYLQMNSLKQEDTGVYYCAVRSKGKDVGYWGQGTQVTVSS | high polyreactivity
QVQLVESGGGLVQAGGSLRLSCAASGRNFSRNAMGWYRQAPGKERELVAAISSGGRTKYADSVKGRFTISRDNAKNTVYLQMNSLKPEDTAVYYCAATDPRSWYGRGRYDYWGQGTQVTVSS | high polyreactivity
QVQLVESGGGLVQAGGSLRLSCAASGRNFSSYALGWYRQAPGKERELVAAIRYDAGSTYYADSVKGRFTISRDNAKNTVYLQMNSLKPEDTAVYYCAAGIYSSRHSPYGYWGQGTQVTVSS | high polyreactivity
QVQLVESGGGLVQAGGSLRLSCAASGRNFYTYTMGWYRQAPGKERELVAAISKSGTSTYYADSVKGRFTISRDNAKNTVYLQMTSLKPEDSAVYYCAARAYYARFLMGYWGQGTQVTVSS | high polyreactivity
QVQLVESGGGLVQAGGSLRLSCAASGRNFYYYAMGWSRQAPGKERELVAAISWSGGSTRYADSVKGRFTISRDNPKNTVYLQMNSLKPEDTAVYYCAAEPDYWVGWIRYDYWGQGTQVTVSS | low polyreactivity
QVQLVESGGGLVQAGGSLRLSCAASGRNFYYYTMGWYRQAPGKERALVASISQSGARTYYADSVKGRFTISRDNSKNTVYLQMNSLKPVYTAVYYCNAVGTGGYHYWGQGTQVTVSS | high polyreactivity
QVQLVESGGGLVQAGGSLRLSCAASGRNIHFNAMGWYRQAPGKERELVAGITFIGTSTYYADSVKGRFTISRDNAKNTVYLQMNSLKPDDTAVYYFAASAVALPYYAGDYDYWGQATQVTVSS | low polyreactivity
QVQLVESGGGLVQAGGSLRLSCAASGRNIYSNAMGWYRQAPGKERELVAAIRWRDGATYYADSVKGRFTISRDNAKNTVYLQMNSLKPEDTAVYYCAAVYWGEEYEYWGQGTQVTVSS | low polyreactivity
QVQLVESGGGLVQAGGSLRLSCAASGRNLIAYAMGWYRQAPGKEREFVAAIRADDGRTYYADSVKGRFTISRDNAKITVYLQMTSLKPEDTAVYYCAAEWYWLHSWFDYWGQGTQVTVSS | high polyreactivity
QVQLVESGGGLVQAGGSLRLSCAASGRNLLGNAMGGYRQAPGKEREFVAAISYRGGSTYYADSVKGRFTISRDNEKNTVYLQMNSLKPVDNAVPYCAASSLKYSRFDYGGQGTQVTVSS | low polyreactivity
QVQLVESGGGLVQAGGSLRLSCAASGRNLYYNAMGWYRHAPGKERELVAAITFRGGSTSYADSVKGRFTISRDNAKNTVYLQMNSLKPEDTAVYYCAAGYTWRQSWYPFDYWGQGTQVTVSS | high polyreactivity
QVQLVESGGGLVQAGGSLRLSCAASGRPFDSNAMGWYRQGPGKERELVAAISYGCGTTHYADSVKGRFTISRDNAKNTVYLQMNSLKPEDTAVYYCAADPELQWESVTIGEYDYWGQGTQVTVSS | low polyreactivity
QVQLVESGGGLVQAGGSLRLSCAASGRPFVSYALGWYRQAPGKERELVAVITGGTGNTYYADSVKGRFTISRDNAKNTVYLQMNSLIPEDTAVYYCNARGGYYKFRYPLYYWGQVTQVTVSS | high polyreactivity
QVQLVESGGGLVQAGGSLRLSCAASGRSFGTNAMVSYIQAPGKEREFVAAIRKSGATTYYADSVKGRFTISRDNAKNTVYLQMNSLKPDDTAVYYCAADFFYYGKWYSGYYWGQGTQVTVSS | high polyreactivity
QVQLVESGGGLVQAGGSLRLSCAASGRSFTSNTMGWYRPAPGKERELVAAITSSGGSMYYADSVKGRFTISRDNANNTVYLQMNSLKPEDTAVYYCAADTIGYHYWYDYWGQGTQVTVSS | low polyreactivity
QVQLVESGGGLVQAGGSLRLSCAASGRSFVLYTMGWSRQAPGKEREWVAAISGSGGRTYYADSVKGRFTISRDHAKNTVNLQMNSLKPEDTAVYYCAAYGQGLPLYGYWGPGTQVTVSS | high polyreactivity
QVQLVESGGGLVQAGGSLRLSCAASGRSFWKYAMGWCRQAPGKERELVAAITSDGSTYYADSVKGRFTISRDNAKNTVYFQMNSLKPEDTADYYCAAQQWFEYDYWGQGTQVTVSS | low polyreactivity
QVQLVESGGGLVQAGGSLRLSCAASGRTCDRNTMGWYRQAPGKERELVAAISGSSARTYYADSVKGRFTISRDNAKNTVYLQMNSLKPEDTAVYYCNAEYGARAQHYEGDSWGQGTQVTVSS | high polyreactivity
QVQLVESGGGLVQAGGSLRLSCAASGRTCWSYAMGWYRQAPGKEREVVATITGRGGSTYYADSVKGRFTISRDNAKNTVYLQRNSLKPEDTAVYYCAVRSKYRRTFGSWGQGTQVTVSS | high polyreactivity

Sequence | polyreactivity (PSR sort gate)
QVQLVESGGGLVQAGGSLRLSCAASGRTFAANTMGWYRQAPGKERELVAAISSSGGSTSYADSVKGRFTISRDNAKNTVYLQMNSLKPEDTAVYYCNTLLRRDFNYWGQGTQVTVSS | high polyreactivity
QVQLVESGGGLVQAGGSLRLSCAASGRTFAAYAMGWYRPAPGKESELVAAISSSSGNTYYADSVKGRFTISRDNAKNTVYLQMNSLKPEDTAVYYCNAQRRFNANYWYDYWGQGTQVTVSS | high polyreactivity
QVQLVESGGGLVQAGGSLRLSCAASGRTFAAYAMGWYRQAPGKEREFVADITYSGGSTTYADSVKGRFTISRDNAKNTVYLQMNSLKPEDTAVYYCNKLAYTRGWRGFVWYDYWGQGTQVTVSS | low polyreactivity
QVQLVESGGGLVQAGGSLRLSCAASGRTFAAYAMGWYRQAPGKERELGAAISIGGSTNYADSVKGRFTISRDNAKNTVYLQMNSLKPEDSAVYYCAAPWYRGGTTESYYWGQGTQVTVSS | high polyreactivity
QVQLVESGGGLVQAGGSLRLSCAASGRTFAAYAMGWYRQAPGKERELVAGITSSSVRTYYADSVKGRFTISRDNAKNTVYLQMNSLKPEDTAVYYCNARADGSSSRWRPYSKFYYWGQGTQVTVSS | low polyreactivity
QVQLVESGGGLVQAGGSLRLSCAASGRTFADNAMGWYRQAPGKERELVASISSGTSTNYADSVKGRFTISRDNAKNTVYLQMNSLKPEDTAVYYCAADFSVYTEEDDSWGHGTQVTVSS | low polyreactivity
QVQLVESGGGLVQAGGSLRLSCAASGRTFAGNAMGWYRQAPGKERELVAAISQGGGSTYYADSVKGRFTISRDNAKNTVYLQMNSLKPEDTAVYYCAAEIPRRWASFATLWYDYWGQGTQVTVSS | low polyreactivity
QVQLVESGGGLVQAGGSLRLSCAASGRTFAGNAMGWYRQAPGKEREMVAAISVSGSTTYYADSVKGRFTISRDNAKNTVYLQMNSLKPEDTAVYYCAARGLTYRSDMYYWGQGTQVTVSS | low polyreactivity
QVQLVESGGGLVQAGGSLRLSCAASGRTFAGYAMGWYRQAPGKERELVAAITNGGSTKYADSVKGRFTISRDNAKNTVYLQMNSLKPEDTAVYYCNARKRFYSGNTLMYYWGQGTQVTLSS | high polyreactivity
QVQLVESGGGLVQAGGSLRLSCAASGRTFAINAMGWHRQAPGKERELVADITTDGSTYYADSVKGRFTISRDNAKNTVYLQMNSLKPEDTAVYYCATDSLDYFIRFKQFGYWGQGTQVTVSS | low polyreactivity
QVQLVESGGGLVQAGGSLRLSCAASGRTFAKYAMGWYRQAPGKERELVAAITRGDTTNYADSVKGRFTISRDNAKNTVYLQMNSLKPEDTGVYYCAATPDPPHTYEYWGQGTQVTVSS | low polyreactivity
QVQLVESGGGLVQAGGSLRLSCAASGRTFALYAMGWYRQAPGTERELVASISWRGGSTYYADSVKGRFTISRDNAKNTVYLQMNSLKPEDTAVYYCAADTWSYGPLNYRLEYWGQGTQVTVSS | low polyreactivity
QVQLVESGGGLVQAGGSLRLSCAASGRTFANNAMGWYRQAPGKERELVAAITASGGRTYYADSVKGRFTISRDNAKNTVYLQLNSLKPEDTAVYYCAKRGYASGSKWDYGYWGQGTQVTVSS | high polyreactivity
QVQLVESGGGLVQAGGSLRLSCAASGRTFANYAMGWYRQAPGKERELVAAISYSGGSTYYADSVKGRFTISRDNAKNTVYLQMNSLKPVDTAVYYCAKRWTGLGGYYYWGQGTQVTVSS | high polyreactivity
QVQLVESGGGLVQAGGSLRLSCAASGRTFAPYAMGWYRQAPGKERELVAGITYRTGNTYYADSVKGRFTISRDNAKNTVYLQMNSLKPEDTAVYYCAAYSGYYRPRYNYWGQGTQVTVSS | high polyreactivity
QVQLVESGGGLVQAGGSLRLSCAASGRTFAPYTMGWYRQAPGKERELVAVITRRDGRTYYADSVKGRFTISRDNAKNTVYLQMNSLKPEDTAVYYCCFFPADWYRPVRDLRTDSDYWGQGTQVTVSS | low polyreactivity
QVQLVESGGGLVQAGGSLRLSCAASGRTFAPYVMGWYRQAPGKERELVAAITWSGGSTYYADSVKGRFTISRDNAKNTVYLQMNSLKPEDTALYYCAVKGAGGPKYDYWGQGTQVTVSS | high polyreactivity
QVQLVESGGGLVQAGGSLRLSCAASGRTFAQYAMGWYRQAPGKERELVAAITKRGGTTYYADSVKGRFTISRDNAKNTVYLQMNSLKPEDTAVYYCKAGGVVPSTYYWGQGTQVTVSS | high polyreactivity
QVQLVESGGGLVQAGGSLRLSCAASGRTFARNAMGWYRPAPGKERELVAAITGRGGSTHYADSVKGRFTISRDNAKNTVYLKMNSLKPEDTAVYYCAADYRYNRGSTSNKDYDYWGQGTQVTVSS | low polyreactivity
QVQLVESGGGLVQAGGSLRLSCAASGRTFARNAMGWYRQAPGKERELGAAISSSGGSTYYADSVKGRFTISRDNAKNTVYLQMNSLKPEDTAVYYCDARSRHAYGYWGQGTQVTVSS | high polyreactivity
